Laboratory results published in article PMC11240984.

What was measured:
[1] = molecular target: F-actin (fibrillar actin from rabbit skeletal muscle) (rabbit) (UniProt P68135); assay: light scattering on heating (thermally induced dissociation of Tpm from F-actin); 20 µM phalloidin-stabilized F-actin and 10.5 µM Tpm (legend: 10 µM) in 30 mM Hepes-Na pH 7.3, 100 mM NaCl; heated to 65 °C at 1 °C/min; 350 nm, 90°; T_diss = temperature of 50% decrease in light scattering
[2] = molecular target: F-actin (fibrillar actin from rabbit skeletal muscle) (rabbit) (UniProt P68135); assay: co-sedimentation; 10 µM F-actin with 0.5 to 7.5 µM Tpm in 30 mM Hepes-Na pH 7.3, 200 mM NaCl; pelleted at 100,000 x g; SDS-PAGE of pellet and supernatant; apparent affinity, K50% = free Tpm at half-saturation of actin
[3] = molecular target: F-actin (fibrillar actin from rabbit skeletal muscle) (rabbit) (UniProt P68135)
[4] = viscosity measurement (falling ball micro viscometer); Tpm 1 mg/mL in 30 mM Hepes-Na pH 7.3, NaCl from 30 to 200 mM, 4 mM DTT, 20 °C; excess viscosity over buffer as measure of end-to-end interactions between adjacent Tpm molecules; settings: other: viscosity measurement (falling ball micro viscometer)

T diss (temperature of half-dissociation of Tpm from F-actin) [1] [°C] | K50% [2] [µM] | bending stiffness of Tpm–F-actin filaments, two-beam optical trap, median (IQT, N); F-actin alone 2.35 [3] [N∙m^2] | Substance | excess viscosity at 30 mM NaCl [4] | excess viscosity at 200 mM NaCl [4] | solution viscosity at 200 mM NaCl [4] [mPa·s]
44.4 | 0.59 | 8.1e-26 | AS-Tpm1.8, Tpm1.8 with N-terminal Ala-Ser extension (natural protein) |  |  | 
 |  |  | AS-Tpm1.9, Tpm1.9 with N-terminal Ala-Ser extension | approximately 2.25 mPa·s for 30 mM NaCl | close to 0.5 mPa·s for 200 mM NaCl | 
47 | 0.98 | 4.7e-26 | AS-Tpm1.9, Tpm1.9 with N-terminal Ala-Ser extension (natural protein) |  |  | 
 |  |  | Tpm1.8, cytoplasmic tropomyosin isoform (human, TPM1 gene product) |  |  | 0.593
44.4 | 0.3 | 3.75e-26 | Tpm1.8, cytoplasmic tropomyosin isoform (human, TPM1 gene product) (natural protein) |  |  | 
 |  |  | Tpm1.9, cytoplasmic tropomyosin isoform (human, TPM1 gene product) | approximately 2.25 mPa·s for 30 mM NaCl | close to 0.5 mPa·s for 200 mM NaCl | 0.886
46.2 | 0.79 | 4.8e-26 | Tpm1.9, cytoplasmic tropomyosin isoform (human, TPM1 gene product) (natural protein) |  |  | 
